Assays:
[1] = tested on: T1, UPF1-HD (Homo sapiens), Q92900-2; assay: BLI; details: BLI: 20 mM HEPES pH 7.5, 150 mM K acetate, 2 mM Mg acetate, 1 mM DTT, 6.3% glycerol, 0.1% NP-40; EMSA: 20 mM MES pH 6.0, 150 mM K acetate, 2 mM DTT, 0.2 ug/ul …
T1 sequence: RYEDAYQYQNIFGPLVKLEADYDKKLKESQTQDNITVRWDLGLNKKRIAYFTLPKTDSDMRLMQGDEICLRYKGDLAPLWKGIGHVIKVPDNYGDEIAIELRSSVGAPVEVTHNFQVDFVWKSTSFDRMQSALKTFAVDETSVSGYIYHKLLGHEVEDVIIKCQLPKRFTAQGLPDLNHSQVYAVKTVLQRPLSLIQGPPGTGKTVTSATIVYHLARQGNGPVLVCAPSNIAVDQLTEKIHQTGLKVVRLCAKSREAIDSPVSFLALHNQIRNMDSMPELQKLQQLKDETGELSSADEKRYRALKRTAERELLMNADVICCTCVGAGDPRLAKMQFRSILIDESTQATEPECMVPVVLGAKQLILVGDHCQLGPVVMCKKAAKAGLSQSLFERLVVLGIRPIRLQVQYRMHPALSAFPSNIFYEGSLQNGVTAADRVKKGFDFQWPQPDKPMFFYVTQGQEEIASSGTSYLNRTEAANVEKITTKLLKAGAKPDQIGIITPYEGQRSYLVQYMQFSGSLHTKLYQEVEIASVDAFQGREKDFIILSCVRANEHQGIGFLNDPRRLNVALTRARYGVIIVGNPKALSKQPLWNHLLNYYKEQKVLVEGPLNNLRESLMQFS

[2] = target: GST-Tax_(CACA) (HTLV-1 Tax with C23 and C29 changed to alanine, N-terminal GST fusion) (HTLV-1) (UniProt P03409); assay: BLI; BLItz; GST-Tax covalently bound to an AR2G sensor; UPF1 His-HD proteins in running buffer (300 mM NaCl, 20 mM phosphate, 0.02% Tween 20, 0.1% albumin); 250 s association, 60 s dissociation

Substance	Kd [1]	fold change of KD against WT [2]
5'-biotin 30-mer ssDNA (BLI)	8.25 nM	
UPF1-HD_(R843C), histidine-tagged (from UniProt Q92900-2 295-914) (domain or fragment)		3.2 times
